Data: the nanobody polyreactivity screen of Harvey et al. (2022)

Assay: yeast display, Sf9 membrane polyspecificity reagent, FACS + sequencing; frameworks hold sequencing errors
Summary of the method: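 Galactose-induced (36–48 hours) yeast carrying a synthetic nanobody display library were exposed to 10% biotinylated, detergent-solubilized Sf9 membrane reagent at 4 °C for 1 hour. FACS followed streptavidin microbead enrichment, using low and high (top ~1%) gates for expression (anti-HA) and reagent binding (streptavidin). Colony PCR, MiSeq 2 × 250 sequencing and CDR-length filtering followed. Labels for polyreactivity reflect the gate of origin.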

Sequence	polyreactivity (PSR sort gate)
QVQLVESGAGLFQAGGRLRLSCAASGRTFQVYAMAWYRHAPGTERELVAAIDLGGGSTYYADSVKGRFTISRDNAKNTVYLQMNSLKQEDTAVYYCAADVGLRFDYWGQGTQVTVSS	high polyreactivity
QVQLVESGAGLFQAGGRLRLSCAPSGSTFGTYAMGWYRQAPGKERELVAAITSGGSTDYADSVKGRFTISRDNAKNTVYLQMNSLKPEDTAVYYCNATWELLSYYYLFWGYDYWGQGTQVTVSS	low polyreactivity
QVQLVESGAGLFQAGGSLRLTCAPSGSIFAFNTMGLYRQAPGKERHLVAAITWGGGSTYYADSVKGRFTISRDNAKNTVYLQMYSLKPEDTAVYYCATKAKYGRQFLMEYWGQGTQVTVSS	high polyreactivity
QVQLVESGAGLLQAGGSLRLSCAASGFIFVTYAMGWYRQAPGKERELVAAITNSGGTTYYADSVKGRFTISRDNAKNTVYLQMISLKPEDTAVYYCNKAYGAETAHREFVYWGQGTQVTVSS	low polyreactivity
QVQLVESGAGLVHAGGSLRLSCAASGRIFNYYAMGWYRQAPGKESELVAGINWSGTRTYYADSVKGRFTISRDNAKITVYLQMNSLKPEDTAVYYCNAGRTWRAFTGDEYWVQGTQVTVSS	high polyreactivity
QVQLVESGAGLVKAGGSLRLSCASSGRILDFYDMGWYRQAPGKERELVAAITSGTSTYYADSVKGRFTISRDNAKYTVYLQMNSLKPEDTAVYYCAAAHVPVGQYVYWYDYWGQGTQVTVSS	low polyreactivity
QVQLVESGAGLVQAAGSLRLICASSGFILLDKAMGWYRQAPGKEREFVASINISGARTFYADSVKGRFTISRDTAKNTVYLQMNSLKPEDTAVYYCAKEPGWGRRSTTAYDYWGQGTQVTVSS	low polyreactivity
QVQLVESGAGLVQAAGSLRLSCAASGRTFSRNAMGWYRQAPGQERELVARIRSGGSTYYADSVKGRFTISRDNAKNTVYLQMNSLKPDETAVFYLAADRYGYQFDYWGQGTQVTVSS	high polyreactivity
QVQLVESGAGLVQAGGSLRISCAASGFIFNEYAMGWYRQAPGKERELVAAISSGGSTYYADSVKGRFTISRDNAKNTVYLLINSLKPEDTAVYYCNALRRSQPWKYDYWGPGTQVTVSS	low polyreactivity
QVQLVESGAGLVQAGGSLRISCAASGFTFAYYAMGWYRQAPGKEREFVAAITKGGGSTNYADSVKGRFTISRYNAKNTVYLQMNSLNPEDTAVYYCNADYFVWYIGRVFSRYGYWGQGTQVTVSS	low polyreactivity
QVQLVESGAGLVQAGGSLRISCAASGITFYRNAMGWYRQAPGKERELVAAITWNGGRTYYADSVKGRFTISRDNAKNTVYLQMNSLNPEDTAVYYCAKRYGSTQSRYDFWGPGTQVTVSS	high polyreactivity
QVQLVESGAGLVQAGGSLRISCAASGRIFYVYAMGWYRQAPGKEREFVASISWSGGSTYYADSVKGRFTISRDNANNTVLLQMNSLKPADTAVYYCNARAFTQRYDYWGQGTQVTVSS	low polyreactivity
QVQLVESGAGLVQAGGSLRISCAASGSIFTNAMGWYRQAPGKERELVAAISSSGGSTYYADSVKGRFTISRDNANNTVYLQMNSLKPEDTAVYYCAADHYGGRDYWGQGTQVTVSS	low polyreactivity
QVQLVESGAGLVQAGGSLRISCAASVITFIPYAMGWYRQAPGKERELLASISDGGGTNYADSVKGRFTISRDNAKNTVYLQMNSLKTEDTAVYYCATDASTYAYYGGYYWGHGTQVTVSS	low polyreactivity
QVQLVESGAGLVQAGGSLRLICAASGRTFYPNAMGWYRQAPGKERELVAAITYSGTRTYYADSVKGRFTISRDNAKNTVYLQMNSLKPEDTAVYYCAAVVGKIGFNYWGQGTQVTVSS	high polyreactivity
QVQLVESGAGLVQAGGSLRLSCAASGFIFLAYTMGWSRQGPAKERELVAAISTSGGSTYYADSVKGRFTISRDKAKNTVYLEMNSLKPEDTGVYYCAADYSYWRGYDSWGQGTQVTVSS	high polyreactivity
QVQLVESGAGLVQAGGSLRLSCAASGFIFYIYAMGWYRQAPGKEREFVAVISSSGGITYYADSVKGRFTISRDNAKNTFYLQMNSLKPEDTAVYYCARDTEGKYVGYGRGGYWGQGTQVTVSS	low polyreactivity
QVQLVESGAGLVQAGGSLRLSCAASGFTFPVYAMGWNRQAPGKERELVAAISWSGGGTYYADSVKGRFTISRDIAKNTVYLQMNSLNPEDTAVHYCAARWYYYPLMYDYWGQGTQVTVSS	low polyreactivity
QVQLVESGAGLVQAGGSLRLSCAASGGTFWKYAMGWYRQAPGKESELVAAITWSGSSTYYADSVKGRFTISRDNAKNTVFLLMKSLKPEDTAVYYCARYHVGPSYRYGYWGQGTQVTVSS	high polyreactivity
QVQLVESGAGLVQAGGSLRLSCAASGIIFPFYAMGWYRQAPGKEMELVAAITSDGNTNYADSVKGRFTFSRDNAKNTVYLQMNSLKPVDTAVYYCNAETQYAVLSWHSTRHDYWGQGTQVTLSS	low polyreactivity
QVQLVESGAGLVQAGGSLRLSCAASGRIFHWYAMGWYRQAPGKERELVATANTSYADSVKGRFTISRDNAKNTVYLQMNSLKPEDTAVYYCATVGPRGRSLGDYWGQVTQVTVSS	low polyreactivity
QVQLVESGAGLVQAGGSLRLSCAASGRILIIYAMGWYRQAPGKERELVARITYTGGRTYYADSVKGRFTISRDNAKNTVYRQMNSLKPDDTAVYYCATDWSRSDSYSHYDSWVQGTQVTVSS	low polyreactivity

Sequence	polyreactivity (PSR sort gate)
QVQLVESGAGLVQAGGSLRLSCAASGRNFQYYAMVWYRQAPGKERELVAAISSGGGTYYADSVKGRFTISRDNAKNTVYLQMNSLKPEDTAVYYCAARYVYHRGFDYWGQGTQVTVSS	high polyreactivity
QVQLVESGAGLVQAGGSLRLSCAASGRTFNFYTMGWYRQAPGKERELVAAIDASGGRTYYADSVKGRFTISRDNAKNTVYLQMNSLKPEDTAVYYCAKYPRYSYVGYGYWGQGTQVTVSS	high polyreactivity
QVQLVESGAGLVQAGGSLRLSCAASGSIFGFYAMGWYRQAPGKERELVASISSSGDSTYYADSVKGRFTISRDNAKYTVYLPMNSLKPEDTAVYYCAAVVYDIYGYEFDYWGLGTQVTVSS	low polyreactivity
QVQLVESGAGLVQAGGSLRLSCAASGSIFGPNAMGWYRQAPGKERELVAAISWSGASTYYADSVKGRFTISRDNAMNTVYLQMNSLKPEDTAVYYCAADYYGVSGSGYGYWGQGTQVTVSS	low polyreactivity
QVQLVESGAGLVQAGGSLRLSCAASGSIFKYNTMGWYRQAPGKERELVATISGGGRTYYADSVKGRFTISRDNAKNTVYLQMNSLKPEDTAVYYCAARKRGTFTYDYWGQGTQVTVSS	high polyreactivity
QVQLVESGAGLVQAGGSLRLSCAASGSIFSYYVMGWYRQAPGKERELVAAISYSGGRTYYADSVKGSFTISRDNAKYTVYLQMNSLKPEDTAVYFCAASRRVGEVSYYYWGQGTQVTVSS	high polyreactivity
QVQLVESGAGLVQAGGSLRLSCAASGSIFVQYAMGWSRQAPRNERELVAGISSIGGSTYYADSVKGRFTLSRDNSKNSVYLQMNSLKPEDTAVYYCAKRWRSSYRIGHDYWRQGTQVTVSS	low polyreactivity
QVQLVESGAGLVQAGGSLRLSCAASGSIFWWNALGWYRQAPGKQRELVAAINWSTGRTYYADSVKGRFTISRDNAKNTVYLQMISLKPEDTAVYYCAACFVGDLGYEYWGQGTQVTVSS	low polyreactivity
QVQLVESGAGLVQAGGSLRLSCAASGSILTAYAMGWYRQAPVKERELVAAISRGDITKYADSVKGRFTISRDNAKNTVYLQMNSLQPEDTAVYYCAARVPRYSDSTRGRADYYWGQVTQVTVSS	high polyreactivity
QVQLVESGAGLVQAGGSLRLSCAASGSTFSRYAMGWYRQAPGKERELVAAISRRGGSTYYSDSVKGRFTISRDNSKNTVYLQKISLKPEDTAVYYCAADPQPSSDRGTYDYWGQGTQVSVSS	high polyreactivity
QVQLVESGAGLVQAGGSLRLSCAASGSTLVFYTMGWYRQAPGKERELVAAISYSGGRTYYADSVKGRFTISRDNAKNTVYLQMNSLKPEDTAVYYCAAVGRSYNRISQYDYWGQGTQVTVSS	high polyreactivity
QVQLVESGAGLVQAGGSLRLSCAASGTIFSGNAMGWYRQAPGKESELVAAISRSGGSTYYADSVKGRFTISRDNAKNTVSLQKNSLKPEDTAVYYCAAYRTHGPPRAIRFDYWGQGSQVTVSS	high polyreactivity
QVQLVESGAGLVQAGGSLRLSCAAYGLIFTYNAMGWYRQAPWKERKLVARITSGGNTNYADSVKGRFTISRDYAKNTVYLQMNSLKPEDTAVYYCATCLYWFTNRYGYWGQGTQVTVSS	low polyreactivity
QVQLVESGAGLVQAGGSLRLSCAPSGITFVGNAMGWSRPAPGKERELVAGIRGNGGSTYYADSVKGRFTISRDNAKNTVYFQMNSLKPEDTAVYYSAAAAYYADFDYWGLGTQVTVSS	low polyreactivity
QVQLVESGAGLVQAGGSLRLSCATYGITISYYAMVWYGQGPGKVSELVAAISTSGGSTYYADSVKGRFTFSRDNAKNTVYLQMNSLKPEDTAVFYCAAVYTTGGYTGLEYWGQGTQVTVSS	high polyreactivity
QVQLVESGAGLVQAGGSLRLTCAASGFIFRDYAMGGYRQAPGKDRELVAAISSGDSTNYADSVKGRFTISRDNAKNTVYLLMNSLKPEDTAVYYCAADQVQYTGYTEYDWGQGTQVTVSS	low polyreactivity
QVQLVESGAGLVQAGGSLRLTCAASGFIFRRNAMGWYRQAPGKERELVAAITTGGRTNYADSVKGRFTISRDNAKNTVYLQMNSLKPEDTPVYYCYAPVLDVIDVFYYARILFGYWGQGTQVTVSS	low polyreactivity
QVQLVESGAGLVQAGGSLRLTCAASGSTFYRYAMGWYREAPGKERELVAAINTGGSTNYADSVKGRFTISRDNAKNTVYLQMYSMKPEDTAVYYCAARFQYYRKYDYWGQGTQVTVSS	low polyreactivity
QVQLVESGAGLVQAGGSLRSSCAASGSTFSGNAMGLYRQAPGKERELVAAISGRGGSTYYADSVKGRFTISRDNAKNSVYLQMNSLKPEDTAVYYCAKRRNTRGAYGYWGQGTQVTVSS	high polyreactivity
QVQLVESGAGLVQAGGSLRVSCAASGSIFGKNAMGWYRQAPGKERELVAAITSSGGSTYYADSVKGRFTISRDNAKNTVYLQMNSLKPEDTAVYYCAARPWIWARAGYYWGQGTQVTVSS	high polyreactivity
QVQLVESGAGLVQAGGSRRLSCAASGSIFYRYTMGWYRQAPGKERELVAGITFGAGTYYADSVKGRFTISRDNAKNTVYLQMNSLKPEDTAVYYCNAIHLPRNRDYWGQGTQVTVSS	low polyreactivity
